Source: the supplement of paper PMC10567573

B1: MMP1 (parent)
chain: FVRGDHRDNSPFDGPGGNLAHAFQ

Variants of: B1
Test: protein stability index of a GFP-peptide fusion (GPS, HEK-293T) (PSI 1-6); higher = more stable
Conditions: c terminus: a fixed tail appended
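Also: lentivirally expressed fusions sorted by FACS into six bins by GFP to DsRed ratio, PSI derived from sequencing read proportions per bin multiplied by bin number.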

Variant	protein stability index
FVRGDHRDNSPFDGPGGPLAHAFQ [N18P]	2.17
FVRGDHRDNSPFDGPGGELAHAFQ [N18E]	2.15
FVRGDHRDNSPFDGPGGKLAHAFQ [N18K]	2.5
FVRGDHRDNSPFDGPGGQLAHAFQ [N18Q]	2.27
FVRGDHRDNSPFDGPGGVLAHAFQ [N18V]	2.14
FVRGDHRDNSPFDGPGGLLAHAFQ [N18L]	3.23
FVRGDHRDHSPFDGPGGNLAHAFQ [N9H]	4.14
FVRGDHRDLSPFDGPGGNLAHAFQ [N9L]	2.31
FVRGDHRDGSPFDGPGGNLAHAFQ [N9G]	1.38
FVRGDHRDVSPFDGPGGNLAHAFQ [N9V]	1.87
FVRGDHRDQSPFDGPGGNLAHAFQ [N9Q]	2.07
FVRGDHRDFSPFDGPGGNLAHAFQ [N9F]	3.83
FVRGDHRDWSPFDGPGGNLAHAFQ [N9W]	2.12
FVRGDHRDPSPFDGPGGNLAHAFQ [N9P]	2.4
FVRGDHRDSSPFDGPGGNLAHAFQ [N9S]	2.41
FVRGDHRDDSPFDGPGGNLAHAFQ [N9D]	1.8
FVRGDHRDESPFDGPGGNLAHAFQ [N9E]	2.15
FVRGDHRDTSPFDGPGGNLAHAFQ [N9T]	2.13
FVRGDHRDYSPFDGPGGNLAHAFQ [N9Y]	2.58
FVRGDHRDMSPFDGPGGNLAHAFQ [N9M]	2.27
FVRGDHRDKSPFDGPGGNLAHAFQ [N9K]	2.47
FVRGDHRDISPFDGPGGNLAHAFQ [N9I]	3.22
FVRGDHRDNSPFMGPGGNLAHAFQ [D13M]	1.03
FVRGDHRDNSPFSGPGGNLAHAFQ [D13S]	2.56

Variant	protein stability index
FVRGDHRDNSPFKGPGGNLAHAFQ [D13K]	1.59
FVRGDHRDNSPFAGPGGNLAHAFQ [D13A]	1.37
FVRGDHRDNSPFTGPGGNLAHAFQ [D13T]	2.27
FVRGDHRDNSPFQGPGGNLAHAFQ [D13Q]	2.21
FVRGDHRDNSPFNGPGGNLAHAFQ [D13N]	1.77
FVRGDHRDNSPFYGPGGNLAHAFQ [D13Y]	3.03
FVRGDHRDNSPFVGPGGNLAHAFQ [D13V]	3.19
FVRGDHRDNSPFRGPGGNLAHAFQ [D13R]	1.48
FVRGDHRDNSPFEGPGGNLAHAFQ [D13E]	2.57
FVRGDHRDNSPFCGPGGNLAHAFQ [D13C]	2.36
FVRGDHRDNSPFPGPGGNLAHAFQ [D13P]	3.31
FVRGDHRDNSPFHGPGGNLAHAFQ [D13H]	3.02
FVRGDHRDNSPFGGPGGNLAHAFQ [D13G]	2.6
FVRGDHRDNSPFIGPGGNLAHAFQ [D13I]	1.63
FVRGDHRDNSPFLGPGGNLAHAFQ [D13L]	1.47
FVRGDHRDNSDFDGPGGNLAHAFQ [P11D]	2.79
FVRGDHRDNSHFDGPGGNLAHAFQ [P11H]	1.5
FVRGDHRDNSSFDGPGGNLAHAFQ [P11S]	2.91
FVRGDHRDNSWFDGPGGNLAHAFQ [P11W]	1.84
FVRGDHRDNSEFDGPGGNLAHAFQ [P11E]	2.06
FVRGDHRDNSNFDGPGGNLAHAFQ [P11N]	2.13
FVRGDHRDNSKFDGPGGNLAHAFQ [P11K]	1.78
FVRGDHRDNSIFDGPGGNLAHAFQ [P11I]	1.7
FVRGDHRDNSLFDGPGGNLAHAFQ [P11L]	1.34

Variant	protein stability index
FVRGDHRDNSTFDGPGGNLAHAFQ [P11T]	1.8
FVRGDHRDNSAFDGPGGNLAHAFQ [P11A]	1.81
FVRGDHRDNSCFDGPGGNLAHAFQ [P11C]	2.61
FVRGDHRDNSQFDGPGGNLAHAFQ [P11Q]	2.02
FVRGDHRDNSMFDGPGGNLAHAFQ [P11M]	1.6
FVRGDHRDNSFFDGPGGNLAHAFQ [P11F]	1.83
FVRGDHRDNSGFDGPGGNLAHAFQ [P11G]	2.89
FVRGDHRDNSRFDGPGGNLAHAFQ [P11R]	2.4
FVRGDHRDNSVFDGPGGNLAHAFQ [P11V]	2.06
FVRGDHRDNSYFDGPGGNLAHAFQ [P11Y]	2.04
FVRGDHRDNKPFDGPGGNLAHAFQ [S10K]	2.63
FVRGDHRDNDPFDGPGGNLAHAFQ [S10D]	1.35
FVRGDHRDNQPFDGPGGNLAHAFQ [S10Q]	1.6
FVRGDHRDNFPFDGPGGNLAHAFQ [S10F]	2.42
FVRGDHRDNVPFDGPGGNLAHAFQ [S10V]	1.42
FVRGDHRDNIPFDGPGGNLAHAFQ [S10I]	1.71
FVRGDHRDNNPFDGPGGNLAHAFQ [S10N]	1.38
FVRGDHRDNRPFDGPGGNLAHAFQ [S10R]	2.03
FVRGDHRDNHPFDGPGGNLAHAFQ [S10H]	1.51
FVRGDHRDNAPFDGPGGNLAHAFQ [S10A]	2.32
FVRGDHRDNLPFDGPGGNLAHAFQ [S10L]	1.83
FVRGDHRDNTPFDGPGGNLAHAFQ [S10T]	2.13
FVRGDHRDNCPFDGPGGNLAHAFQ [S10C]	1.83
FVRGDHRDNMPFDGPGGNLAHAFQ [S10M]	2.11

Variant	protein stability index
FVRGDHRDNGPFDGPGGNLAHAFQ [S10G]	1.3
FVRGDHRDNPPFDGPGGNLAHAFQ [S10P]	2.84
FVRGDHRDNYPFDGPGGNLAHAFQ [S10Y]	1.71
FVRGDHRDNEPFDGPGGNLAHAFQ [S10E]	1.53
FVRGDHRDNSPFDGPPGNLAHAFQ [G16P]	1.75
FVRGDHRDNSPFDGPVGNLAHAFQ [G16V]	1.83
FVRGDHRDNSPFDGPLGNLAHAFQ [G16L]	2.81
FVRGDHRDNSPFDGPQGNLAHAFQ [G16Q]	2.75
FVRGDHRDNSPFDGPNGNLAHAFQ [G16N]	1.69
FVRGDHRDNSPFDGPSGNLAHAFQ [G16S]	2.23
FVRGDHRDNSPFDGPTGNLAHAFQ [G16T]	2.32
FVRGDHRDNSPFDGPCGNLAHAFQ [G16C]	2.63
FVRGDHRDNSPFDGPIGNLAHAFQ [G16I]	2.4
FVRGDHRDNSPFDGPWGNLAHAFQ [G16W]	3.43
FVRGDHRDNSPFDGPHGNLAHAFQ [G16H]	1.87
FVRGDHRDNSPFDGPKGNLAHAFQ [G16K]	1.52
FVRGDHRDNSPFDGPAGNLAHAFQ [G16A]	1.34
FVRGDHRDNSPFDGPEGNLAHAFQ [G16E]	2.54
FVRGDHRDNSPFDGPDGNLAHAFQ [G16D]	2.29
FVRGDHRDNSPFDGPYGNLAHAFQ [G16Y]	2.73
FVRGDHRDNSPFDGPMGNLAHAFQ [G16M]	1.79
FVRGDHRDNSPFDGPRGNLAHAFQ [G16R]	2.45
